# In doi:10.1101/2022.09.01.506260 (bioRxiv, 2022):
# Square brackets hold non-standard residues; d marks the D form. pT = C[C@@H](OP(=O)(O)O)[C@H](N)C(=O)O; pS = N[C@@H](COP(=O)(O)O)C(=O)O
# T1: human 14-3-3ε (human, UniProt P62258-1 1-255)
# T1 sequence: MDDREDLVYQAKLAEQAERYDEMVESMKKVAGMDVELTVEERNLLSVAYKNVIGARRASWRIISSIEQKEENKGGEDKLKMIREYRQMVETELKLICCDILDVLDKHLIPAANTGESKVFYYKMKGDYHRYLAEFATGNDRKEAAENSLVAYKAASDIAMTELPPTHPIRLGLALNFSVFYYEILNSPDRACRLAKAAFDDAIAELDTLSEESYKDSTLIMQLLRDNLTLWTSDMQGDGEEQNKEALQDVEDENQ
# B1: CrkII NSH3 domain (CrkII^NSH3) (domain or fragment)
# chain: AEYVRALFDFNGNDEEDLPFKKGDILRIRDKPEEQWWNAEDSEGKRGMIPVPYVEKYR
# B2: PEAK3^tandem peptide, non-phosphorylated (residues 54-74) (peptide)
# peptide: Ac-PLPPPLPKKILTRTQSLPTRR-NH2
# Tests used:
# [1] = target: B2; assay: ITC
# SEC [2] = target: the molecule itself; assay: SEC
# SEC [3] = target: the molecule itself; assay: SEC; remark: listed apart in the source
# [4] = target: B1; assay: SPR
# human 14-3-3ε = target: T1, human 14-3-3ε; assay: SPR
# SEC-MALS = target: the molecule itself; assay: SEC-MALS
binder,measurement,setting,value
B1,KD after pre-saturating the peptide with 14-3-3ɣ,[1],0.7 µM
"PEAK2^IDR1 (N-terminally truncated PEAK2, residues 802-1406) (domain or fragment, phosphorylation of the tandem site 14-3-3 motif (RAASSP, first S of SS underlined) found by proteomic analysis) EDVSPSGPQQPPPLPQKKIVSRAASSPDGFFWTQGSPKPGTASPKLNLSHSETNVHDESHFSYSLSPGNRHHPVFSSSDPLEKAFKGSGHWLPAAGLAGNRGGCGSPGLQCKGAPSASSSQLSVSSQASTGSTQLQLHGLLSNISSKEGTYAKLGGLYTQSLARLVAKCEDLFMGGQKKELHFNENNWSLFKLTCNKPCCDSGDAIYYCATCSEDPGSTYAVKICKAPEPKTVSYCSPSVPVHFNIQQDCGHFVASVPSSMLSSPDAPKDPVPALPTHPPAQEQDCVVVITREVPHQTASDFVRDSAASHQAEPEAYERRVCFLLLQLCNGLEHLKEHGIIHRDLCLENLLLVHCTLQAGPGPAPAPAPAPAPAAAAPPCSSAAPPAGGTLSPAAGPASPEGPREKQLPRLIISNFLKAKQKPGGTPNLQQKKSQARLAPEIVSASQYRKFDEFQTGILIYELLHQPNPFEVRAQLRERDYRQEDLPPLPALSLYSPGLQQLAHLLLEADPIKRIRIGEAKRVLQCLLWGPRRELVQQPGTSEEALCGTLHNWIDMKRALMMMKFAEKAVDRRRGVELEDWLCCQYLASAEPGALLQSLKLLQLL",stoichiometry N,SEC [2],2
CrkII SH2 domain (CrkII^SH2) (domain or fragment) DSEERSSWYWGRLSRQEAVALLQGQRHGVFLVRDSSTSPGDYVLSVSENSRVSHYIINSSGPRPPVPPSPAQPPPGVSPSRLRIGDQEFDSLPALLEFYKIHYLDTTTLIEPVSR,stoichiometry N,SEC [3],2
Ac-PTPPPLPKKMIIR-NH2 [PEAK1 1150-1162 proline-rich motif peptide],binding result,[4],binds
"PEAK1^IDR1 (N-terminally truncated PEAK1, residues 1082-1746) (domain or fragment) LPELEREDGKEDISDPMDPNPCSATYSNLGQSRAAMIPPKQPRQPKGAVDDAIAFGGKTDQEAPNASQPTPPPLPKKMIIRANTEPISKDLQKSMESSLCVMANPTYDIDPNWDASSAGSSISYELKGLDIESYDSLERPLRKERPVPSAANSISSLTTLSIKDRFSNSMESLSSRRGPSCRQGRGIQKPQRQALYRGLENREEVVGKIRSLHTDALKKLAVKCEDLFMAGQKDQLRFGVDSWSDFRLTSDKPCCEAGDAVYYTASYAKDPLNNYAVKICKSKAKESQQYYHSLAVRQSLAVHFNIQQDCGHFLAEVPNRLLPWEDPDDPEKDEDDMEETEEDAKGETDGKNPKPCSEAASSQKENQGVMSKKQRSHVVVITREVPCLTVADFVRDSLAQHGKSPDLYERQVCLLLLQLCSGLEHLKPYHVTHCDLRLENLLLVHYQPGGTAQGFGPAEPSPTSSYPTRLIVSNFSQAKQKSHLVDPEILRDQSRLAPEIITATQYKKCDEFQTGILIYEMLHLPNPFDENPELKEREYTRADLPRIPFRSPYSRGLQQLASCLLNPNPSERILISDAKGILQCLLWGPREDLFQTFTACPSLVQRNTLLQNWLDIKRTLLMIKFAEKSLDREGGISLEDWLCAQYLAFATTDSLSCIVKILQHR",stoichiometry N,SEC [2],2
B2,Kd,[4],0.6 µM
Ac-FSPPPPPPKSRHL-NH2 [PEAK2 709-721 proline-rich motif peptide],Kd,[4],13 µM
Ac-QPPPLPQKKIVSR-NH2 [PEAK2 809-821 proline-rich motif peptide],binding result,[4],binds
Ac-PPPLPQKKIVSRAA[pS]SPDGF-NH2 [PEAK2^tandem-pS826 phosphopeptide (residues 812-831)],binding result,human 14-3-3ε,binds
"full length recombinant PEAK3 (PEAK3^FL) from insect cells (natural protein, phosphoserine at 69 (pS69)) MSSPEPPTEPPEPDNPTWSTQPTYSNLGQIRAHLLPSKACRLRTPGSLSTNPEPLPPPLPKKILTRTQSLPTRRTLHPSSIQVQPPRRPFLGSHSVDKSQAAVGPACLPAELTFGPADAPLGLSLRDLHSPEAVHTALAARQLQGLRTIYARLRARLMGGHPGPCHPGHSFRLLDSSPCAESGDALYYRVVRAHEDAWHILVAKVPKPGADVPHPWGLELQASLSPHFNLQGLCGLVPEGTLPGAPWRGAVALAAEVPERTVAQWLAEACTQPPEEFVWAVALLLLQLSAALKFLEAWGAALVELRPENLLLVAPRGCATTGPPRLLLTDFGRVCLQPPGPPGSPGPHAPQLGSLLRALLSLAAPSTTPLAAGLELLAAQLTRLRPSASRTRGALQALLWGPGPELRGRGAPLGPWLRALGPWLRVRRGLLVLRLAERAAGGEAPSLEDWLCCEYLAEATESSMGQALALLWD",stoichiometry N,SEC-MALS,2
Ac-PLPPPLPKKILTRTQ[pS]LPTRR-NH2 [PEAK3^tandem-pS69 phosphopeptide (residues 54-74)],binding result,human 14-3-3ε,binds
CrkII SH2-NSH3 construct lacking the CSH3 domain (CrkII^ΔCSH3) (domain or fragment) MAGNFDSEERSSWYWGRLSRQEAVALLQGQRHGVFLVRDSSTSPGDYVLSVSENSRVSHYIINSSGPRPPVPPSPAQPPPGVSPSRLRIGDQEFDSLPALLEFYKIHYLDTTTLIEPVSRSRQGSGVILRQEEAEYVRALFDFNGNDEEDLPFKKGDILRIRDKPEEQWWNAEDSEGKRGMIPVPYVEKYRPASASVSALIGGNQEGSHPQPLGGPEPGPYAQPSVNT,stoichiometry N,SEC [3],2
Ac-PPPLPKKMIIRAN[pT]EPISKD-NH2 [PEAK1^tandem-pT1165 phosphopeptide (residues 1152-1171)],binding result,human 14-3-3ε,binds
Ac-PLPPPLPKKILTR-NH2 [PEAK3 54-66 proline-rich motif peptide],binding result,[4],binds
